Source: the Human Domainome abundance scans (Beltran et al. 2025)
± gives the uncertainty stated by the source.

B1: Formin-binding protein 4, residues 593 to 636; numbered along this chain, Q8N3X1 (parent)
chain: EINATPKGWSCHWDRDHRRYFYVNEQSGESQWEFPDGEEEEEES
B2: DnaJ homolog subfamily C member 2, residues 451 to 503; numbered along this chain, Q99543 (parent)
chain: SKNWSEDDLQLLIKAVNLFPAGTNSRWEVIANYMNIHSSSGVKRTAKDVIGKA

Variants of: B1
Test: abundance fitness (aPCA) (normalised: wild type 0, dead -1); higher = more abundant; growth selection in yeast, the domain comes from the species named
Details: Homo sapiens

Abundance fitness, by site and new letter:
W32: K -0.246 ± 0.079; L -0.002 ± 0.07; M -0.243 ± 0.098; R -0.324 ± 0.064; S -0.23 ± 0.066; V -0.093 ± 0.091; Y -0.169 ± 0.12
E33: A -0.064 ± 0.062; C -0.355 ± 0.25; D -0.237 ± 0.15; F -0.497 ± 0.081; G -0.168 ± 0.067; H -0.408 ± 0.17; I -0.284 ± 0.28; K -0.232 ± 0.062; L -0.401 ± 0.072; M -0.341 ± 0.09; N 0.031 ± 0.094; P -0.59 ± 0.083; Q -0.009 ± 0.085; R -0.241 ± 0.055; S -0.184 ± 0.082; T -0.078 ± 0.08; V -0.456 ± 0.068; W -0.429 ± 0.063; Y -0.892 ± 0.24
F34: A -0.059 ± 0.072; C -0.035 ± 0.096; D -0.222 ± 0.1; E -0.074 ± 0.088; G -0.392 ± 0.065; H -0.011 ± 0.11; K 0.222 ± 0.095; L 0.015 ± 0.061; M -0.07 ± 0.096; N -0.635 ± 0.13; P 0.071 ± 0.076; Q 0.015 ± 0.089; R 0.081 ± 0.057; S -0.282 ± 0.087; T 0.013 ± 0.09; V -0.044 ± 0.07; W -0.13 ± 0.07; Y -0.084 ± 0.12
P35: A -0.455 ± 0.066; D -0.712 ± 0.092; F -0.854 ± 0.23; G -0.611 ± 0.062; K -0.482 ± 0.098; L -0.801 ± 0.076; M -0.734 ± 0.13; N -0.74 ± 0.11; R -0.661 ± 0.065; S -0.651 ± 0.095; T -0.753 ± 0.099; V -0.583 ± 0.071; W -0.782 ± 0.094; Y -0.995 ± 0.18
D36: A -0.04 ± 0.067; C -0.097 ± 0.095; E -0.113 ± 0.085; F -0.232 ± 0.11; H -0.087 ± 0.083; I -0.07 ± 0.13; K -0.076 ± 0.12; L -0.176 ± 0.065; M -0.09 ± 0.079; N -0.273 ± 0.16; P -0.025 ± 0.071; Q -0.063 ± 0.072; R -0.012 ± 0.062; S 0.003 ± 0.068; T -0.137 ± 0.081; V -0.044 ± 0.064; W -0.262 ± 0.073; Y -0.494 ± 0.13
G37: A -0.032 ± 0.067; C -0.088 ± 0.086; D -0.266 ± 0.18; E -0.095 ± 0.084; H -0.021 ± 0.12; I -0.232 ± 0.14; L -0.151 ± 0.071; M -0.216 ± 0.13; P -0.034 ± 0.097; Q -0.089 ± 0.094; R -0.222 ± 0.068; S -0.112 ± 0.07; T -0.026 ± 0.081; V -0.007 ± 0.068; W -0.154 ± 0.072
E38: A 0.018 ± 0.066; C -0.047 ± 0.071; F -0.217 ± 0.12; G -0.051 ± 0.072; H -0.2 ± 0.12; I -0.021 ± 0.16; M 0.058 ± 0.087; P 0.056 ± 0.07; Q 0.061 ± 0.077; R -0.023 ± 0.059; S 0.045 ± 0.07; T -0.014 ± 0.066; V 0.008 ± 0.084; W -0.314 ± 0.13; Y -0.316 ± 0.39
E39: C 0.048 ± 0.1; D -0.128 ± 0.14; F -0.155 ± 0.11; G -0.057 ± 0.063; I -0.074 ± 0.2; K 0.048 ± 0.075; L 0.075 ± 0.067; M -0.109 ± 0.083; N 0.052 ± 0.096; P 0.041 ± 0.069; Q 0.074 ± 0.078; R -0.068 ± 0.061; S -0.056 ± 0.072; T 0.11 ± 0.084; V 0.008 ± 0.059; W -0.191 ± 0.074
E40: A 0.038 ± 0.067; D -0.158 ± 0.13; F -0.144 ± 0.15; G 0.012 ± 0.054; K -0.004 ± 0.09; L 0.008 ± 0.061; M -0.127 ± 0.084; N -0.057 ± 0.11; P -0.011 ± 0.061; Q -0.033 ± 0.071; R -0.035 ± 0.058; T 0.151 ± 0.1; V 0.056 ± 0.061; W -0.101 ± 0.078; Y 0.114 ± 0.22
E41: A 0.012 ± 0.063; C 0.016 ± 0.084; D -0.28 ± 0.13; F -0.079 ± 0.11; G 0.041 ± 0.059; K -0.048 ± 0.11; L -0.1 ± 0.073; M -0.064 ± 0.11; N -0.109 ± 0.083; P 0.031 ± 0.078; Q 0.056 ± 0.091; R 0.007 ± 0.059; S -0.139 ± 0.092; T -0.011 ± 0.065; V 0.042 ± 0.065; Y -0.502 ± 0.19
E42: A 0.04 ± 0.061; C -0.023 ± 0.064; D 0.038 ± 0.084; F -0.368 ± 0.16; G 0.122 ± 0.061; H -0.009 ± 0.1; I -0.409 ± 0.12; K 0.022 ± 0.11; L -0.073 ± 0.069; M 0.038 ± 0.11; P 0.004 ± 0.064; R 0.01 ± 0.057; S 0.032 ± 0.073; T 0.026 ± 0.073; V -0.005 ± 0.07; W -0.283 ± 0.087; Y -0.152 ± 0.14
E43: A 0.068 ± 0.07; D -0.02 ± 0.13; F 0.248 ± 0.3; G 0.021 ± 0.082; K 0.021 ± 0.092; L -0.086 ± 0.093; M -0.148 ± 0.11; N -0.08 ± 0.15; P 0.044 ± 0.083; Q -0.433 ± 0.3; R -0.056 ± 0.077; S 0.041 ± 0.078; T 0.008 ± 0.089; V 0.046 ± 0.079; W -0.197 ± 0.093
S44: D -0.043 ± 0.3; G 0.083 ± 0.098; H -0.013 ± 0.2; L -0.194 ± 0.12; M -0.536 ± 0.17; Q 0.247 ± 0.19; R 0.025 ± 0.3; T -0.084 ± 0.33; V 0.253 ± 0.16

Variants of: B2
Test: as above
Details: Homo sapiens

Abundance fitness of substitutions, site by site:
S1: A -0.372 ± 0.13; C -0.261 ± 0.097; F -0.112 ± 0.14; G 0.092 ± 0.092; H -0.348 ± 0.41; L -0.32 ± 0.11; M -0.364 ± 0.26; P -0.547 ± 0.25; T -0.086 ± 0.093; V -0.063 ± 0.11; W -0.721 ± 0.12; Y -0.37 ± 0.14
K2: A -0.259 ± 0.084; C -0.274 ± 0.1; D -0.044 ± 0.096; E -0.096 ± 0.073; F -0.314 ± 0.17; G -0.159 ± 0.064; H -0.214 ± 0.14; I 0.1 ± 0.11; L -0.287 ± 0.067; M -0.076 ± 0.095; N 0.076 ± 0.18; Q -0.375 ± 0.12; R -0.184 ± 0.062; S -0.059 ± 0.079; T -0.017 ± 0.081; V -0.365 ± 0.077; W -0.334 ± 0.076; Y -0.138 ± 0.18
N3: C -0.247 ± 0.14; D 0.015 ± 0.095; E -0.554 ± 0.093; F -0.037 ± 0.14; G -0.459 ± 0.066; H -0.025 ± 0.11; I 0.021 ± 0.1; K -0.441 ± 0.092; L -0.12 ± 0.062; P -0.159 ± 0.083; R -0.338 ± 0.063; S -0.234 ± 0.071; T -0.114 ± 0.063; V -0.227 ± 0.066; W -0.491 ± 0.071
W4: A -0.639 ± 0.074; C -0.704 ± 0.093; D -0.808 ± 0.097; E -0.825 ± 0.12; F -0.104 ± 0.16; I -0.465 ± 0.12; K -0.758 ± 0.12; L -0.229 ± 0.063; M -0.06 ± 0.079; P -0.828 ± 0.1; Q -0.704 ± 0.095; R -0.777 ± 0.057; S -0.599 ± 0.065; T -0.621 ± 0.073; V -0.908 ± 0.076; Y -0.341 ± 0.097
S5: A -0.747 ± 0.41; C -0.286 ± 0.23; D -0.676 ± 0.32; F -0.654 ± 0.19; M -0.514 ± 0.48; T -0.014 ± 0.18; V -0.676 ± 0.36; Y -0.715 ± 0.5
E6: C 0.051 ± 0.13; D -0.154 ± 0.16; F 0.038 ± 0.38; G -0.155 ± 0.17; H -0.615 ± 0.31; K -0.679 ± 0.44; L -0.404 ± 0.17; M -0.366 ± 0.16; P 0.107 ± 0.33; Q -0.055 ± 0.15; R -0.543 ± 0.16; S 0.074 ± 0.12; T -0.175 ± 0.21; V -0.121 ± 0.12; Y -0.186 ± 0.16
D7: A 0.106 ± 0.058; C -0.889 ± 0.16; E 0.086 ± 0.068; F -0.308 ± 0.096; G -0.015 ± 0.057; H -0.257 ± 0.096; I -0.19 ± 0.089; K -0.04 ± 0.071; L -0.047 ± 0.053; M 0.037 ± 0.077; N -0.114 ± 0.063; P -0.045 ± 0.067; Q 0.063 ± 0.07; R 0.015 ± 0.053; S 0.042 ± 0.057; T -0.005 ± 0.064; V -0.054 ± 0.061; W -0.437 ± 0.066; Y -0.369 ± 0.094
D8: A -0.977 ± 0.098; C -0.732 ± 0.086; E -0.081 ± 0.082; I -0.534 ± 0.091; K -0.422 ± 0.087; M -0.844 ± 0.12; N -0.757 ± 0.1; P -1.06 ± 0.095; Q -0.559 ± 0.1; R -0.453 ± 0.064; S -0.615 ± 0.06; T -0.186 ± 0.071; V -0.937 ± 0.077; Y -0.712 ± 0.091
L9: A -0.014 ± 0.078; C -0.052 ± 0.091; D 0.156 ± 0.099; E 0.03 ± 0.068; F 0.065 ± 0.078; G -0.143 ± 0.056; H -0.071 ± 0.11; I -0.014 ± 0.075; K -0.043 ± 0.088; M 0.036 ± 0.078; N 0.184 ± 0.11; P -0.724 ± 0.11; Q 0.145 ± 0.085; R -0.054 ± 0.058; V -0.082 ± 0.058; W -0.058 ± 0.068; Y 0.022 ± 0.071
Q10: A -0.189 ± 0.063; C -0.577 ± 0.086; D -0.217 ± 0.075; E -0.054 ± 0.072; F -0.483 ± 0.083; G -0.141 ± 0.062
